± gives the standard deviation of the averaged measurements.
The sequences below were run on ATP (assay: switch fluorescence ratio, 500 uM ATP over buffer (Cy3 cluster intensity, sum of 5 cycles each) (fold (ratio)); higher = stronger signal-on switching upon ATP binding; sequences stand for … in TCGTCGGCAGCGTCAGATGTGTATAAGAGACAGTTTTTTTTTTTTTTTTTTTTTTTTT…TC). Settings: aptamer strand: ATP DNA aptamer (quencher-CACCTGGGGGAGTATTGCGGAGGAAGG + anchor), 100 nM annealed; ATP concentration: 500 uM.
Procedure, shortened: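 For every switch-domain sequence, the fluorescence ratio is the mean of per-cluster values, each being summed target-cycle Cy3 intensity over summed buffer-cycle Cy3 intensity. Clusters outside 100-1000 RFU were excluded. On a modified Illumina MiSeq flow-cell, the Cy3-labelled switching-strand clusters were annealed to 100 nM quencher-labelled ATP aptamer, imaged in selection buffer and then after 15 min with 500 uM ATP at 22 °C. Five such cycles were run, with NaOH stripping and re-annealing between them.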
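Also: ATP exposure 15 min at 22 °C before imaging.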

| Sequence | switch fluorescence ratio |
| --- | --- |
| TGGGACAGGC | 0.965 ± 0.089 |
| GGGTAAATGC | 1.01 ± 0.1 |
| CTCGTTTTGA | 0.975 ± 0.023 |
| ACGTCGGGTG | 1.25 ± 0.15 |
| GTGAGTTTTT | 1.02 ± 0.022 |
| TAGGGAGCCT | 0.964 ± 0.016 |
| AATTCAGTTT | 1.01 ± 0.033 |
| TCGTGAAGGG | 0.979 ± 0.051 |
| TATAGGGGGA | 1.04 ± 0.024 |
| GGGTCTAGGT | 0.997 ± 0.03 |
| GGCCAATAAT | 0.991 ± 0.016 |
| TCGGGGAAGT | 1.04 ± 0.042 |
| GCCTTTAGCT | 0.943 ± 0.011 |
| ACGCATTATT | 1.62 ± 0.051 |
| TATTTTATTA | 1.011 ± 0.0085 |
| GGCAATATTT | 1.2 ± 0.061 |
| GACTATGAAG | 0.99431 ± 0.00011 |
| CGGGGGGGTT | 1.02 ± 0.034 |
| GGGGAGGAAA | 0.999 ± 0.029 |
| ACTGGGTCGA | 1.04 ± 0.034 |
| AGGCATAAGG | 0.9897 ± 0.0077 |
| TTACGTGTCG | 1.01 ± 0.068 |
| CCAGGGGAGG | 1.11 ± 0.071 |
| TCGTGTACTA | 1.02 ± 0.035 |
| ATAACCCTTT | 1.12 ± 0.18 |

| Sequence | switch fluorescence ratio |
| --- | --- |
| AAATAATTCG | 0.997 ± 0.032 |
| TTTATTATGG | 0.989 ± 0.032 |
| TTGTGCGGGT | 1.02 ± 0.049 |
| GGATGAGTGT | 0.982 ± 0.038 |
| GAATGGGGGC | 0.98 ± 0.036 |
| AGCAGGGGGA | 1.01 ± 0.034 |
| GCTGGGAGTC | 1 ± 0.029 |
| ATTCTGGGTT | 0.987 ± 0.032 |
| GTTTAGGCCC | 1 ± 0.041 |
| GTTGTGGTAT | 0.9785 ± 0.0027 |
| GTGGGAGGAG | 0.985 ± 0.031 |
| CTTTAAGGGA | 0.9875 ± 0.0035 |
| TGTAAGAGCG | 0.9934 ± 0.0022 |
| AGATGGCATG | 0.987 ± 0.019 |
| TGGTAGGGTG | 1.01 ± 0.034 |
| TGATGGTCGA | 1.02 ± 0.032 |
| GGCTAGAAAA | 1 ± 0.0099 |
| TGACGGAGAA | 1.01 ± 0.015 |
| GGACCAAGTG | 1.03 ± 0.025 |
| TTACGGAACT | 1.164 ± 0.0041 |
| TTTTTTACGG | 1.02 ± 0.019 |
| TAATTATGCC | 1.05 ± 0.04 |
| TTTGTCATTT | 0.98 ± 0.016 |
| GTGATTAATC | 1.01 ± 0.075 |
| CGGGGGACGT | 0.9794 ± 0.0085 |

| Sequence | switch fluorescence ratio |
| --- | --- |
| GGTTTGGGGT | 0.99 ± 0.032 |
| TAAAAGTCTA | 0.9999 ± 0.0094 |
| GATGCGTGGC | 0.998 ± 0.027 |
| GGGAAAGGAA | 0.989 ± 0.018 |
| GCTTGCCAAA | 0.998 ± 0.0083 |
| TTGTTGGAGT | 0.985 ± 0.018 |
| AATTTGTAAA | 0.981 ± 0.04 |
| TAGCATGCGG | 1.01 ± 0.019 |
| AAGAAGACGG | 1.23 ± 0.35 |
| GCGGATGTCT | 1 ± 0.017 |
| CCGGTAAGGA | 0.994 ± 0.015 |
| AGGTTGGTCG | 0.974 ± 0.064 |
| ATGTTTTCGG | 0.99 ± 0.044 |
| ACACGGGGGC | 1 ± 0.059 |
| AGGGTATAGA | 0.987 ± 0.01 |
| GTAATTAGAT | 0.969 ± 0.022 |
| GGAACAGGTG | 3.49 ± 2 |
| CATACACCTT | 1.21 ± 0.032 |
| TAGTGAGTCC | 1.08 ± 0.1 |
| TTTTTAGTAT | 1.01 ± 0.035 |
| CAAGCATTTT | 1.011 ± 0.0016 |
| CGGCTTTTTA | 0.9588 ± 0.0056 |
| TGCATATGGG | 0.978 ± 0.0058 |
| GGTAGGAAAC | 0.994 ± 0.045 |
| TCTAGGATGG | 0.962 ± 0.023 |

| Sequence | switch fluorescence ratio |
| --- | --- |
| GCTCTATGGT | 1.006 ± 0.0078 |
| ACTTTCACGG | 1.32 ± 0.044 |
| GCTAAAAGCT | 1.02 ± 0.011 |
| GCTTCCAGGG | 1.14 ± 0.094 |
| CACTTAGGTG | 1.19 ± 0.032 |
| ATTAGTGATA | 0.9756 ± 0.0025 |
| CGGGGTCCTA | 1.01 ± 0.014 |
| AGTTGTAAGG | 0.962 ± 0.014 |
| ATTATTTACT | 1.018 ± 0.0017 |
| TCTGTCTAGT | 1.01 ± 0.02 |
| TACGTCGCTG | 0.971 ± 0.023 |
| CGGGCCGCGG | 1.06 ± 0.083 |
| CCTAAGAATG | 1.043 ± 0.0035 |
| AAGTTGATTG | 1.023 ± 0.0031 |
| ACCGGGGGGG | 1 ± 0.035 |
| GGCGGCGCGT | 1.04 ± 0.019 |
| TGGGAAGTGT | 0.9621 ± 0.0013 |
| TGGCGGAACA | 1.02 ± 0.017 |
| CCAAAGTATA | 1.166 ± 0.0013 |
| CGAAAGGGCT | 0.989 ± 0.036 |
| GGGGTTCACG | 0.988 ± 0.005 |
| CATAGGATTG | 1.0163 ± 0.00094 |
| GAGATGGTGC | 0.99 ± 0.053 |
| CGGCTTTGCC | 0.999 ± 0.016 |
| GCAGACCTAT | 0.989 ± 0.058 |

| Sequence | switch fluorescence ratio |
| --- | --- |
| CGGTTCTACG | 1.009 ± 0.0053 |
| CGTGGGATAT | 1.0053 ± 0.00092 |
| ATTCTTGGGT | 1 ± 0.075 |
| AAGTAGGCAC | 1.022 ± 0.0018 |
| ATTGAGTCTG | 1.02 ± 0.047 |
| GTTGAAAGCG | 1.03 ± 0.015 |
| GCGTTGTCTG | 0.982 ± 0.068 |
| GGGGGTAAAG | 1.01 ± 0.022 |
| TTATGGAAGT | 0.989 ± 0.025 |
| CAAATGTTAT | 1.02 ± 0.0088 |
| GGATTAATG | 1.1 ± 0.12 |
| TGATGTACGT | 1 ± 0.011 |
| TCGGGGGTAG | 0.985 ± 0.014 |
| GCGGGGGGTC | 1.06 ± 0.091 |
| CAGTGAGACT | 1.02 ± 0.037 |
| ACGTTTGCG | 0.98 ± 0.04 |
| GCTCTAGTTT | 1.02 ± 0.027 |
| CGGGTGGAGG | 1.02 ± 0.018 |
| GAGCTAGAAA | 1.05 ± 0.065 |
| TTTTCCACGG | 1.21 ± 0.16 |
| TAGGAAATTT | 1.03 ± 0.087 |
| TTTGGTCGC | 0.9851 ± 0.0012 |
| TAGTGACTAG | 1.05 ± 0.021 |
| TGATTGGTGT | 1.02 ± 0.011 |
| AGTGGCTTTG | 0.986 ± 0.019 |

| Sequence | switch fluorescence ratio |
| --- | --- |
| AGGGACGTAG | 1.05 ± 0.026 |
| TGCTTTTTA | 0.971 ± 0.051 |
| CTATAATGTT | 0.9949 ± 0.0059 |
| CGTCCACGGA | 0.9936 ± 0.0096 |
| AGGGTATGGT | 1.01 ± 0.023 |
| ATGCTGGGAC | 1.01 ± 0.024 |
| AGGCATTTTA | 0.983 ± 0.053 |
| TATTGGGAAT | 0.985 ± 0.01 |
| GTGGCACCTA | 0.988 ± 0.018 |
| GATCTTAGGG | 0.989 ± 0.028 |
| ATCTTCAGGT | 0.995 ± 0.0013 |
| TTTTAGATAG | 1.06 ± 0.11 |
| TGAACTGTTC | 1.04 ± 0.069 |
| AACGAAAAAG | 1.12 ± 0.18 |
| TAAGATGAGA | 0.936 ± 0.0097 |
| GATGTTTGGT | 0.99 ± 0.021 |
| CGTATAAGAG | 0.991 ± 0.027 |
| ATAAATTTTC | 0.951 ± 0.043 |
| CAGTAATTGT | 0.9856 ± 0.0029 |
| CCCGGGTATG | 1.03 ± 0.02 |
| AAACATGGTG | 1.03 ± 0.022 |
| TGTCGCTGGG | 1.02 ± 0.01 |
| AGAGGCTTAC | 1.04 ± 0.051 |
| TACTAATTGG | 0.9961 ± 0.0086 |
| ATATGCGGGC | 1.02 ± 0.05 |

| Sequence | switch fluorescence ratio |
| --- | --- |
| AAGGAAAAAC | 1.03 ± 0.029 |
| ACAAGGGGGG | 1 ± 0.045 |
| TGATGCGTGT | 0.999 ± 0.027 |
| CAGCTGCTGC | 1.014 ± 0.0051 |
| GATAACTGAA | 1.068 ± 0.0072 |
| TTAATTTACT | 1.08 ± 0.043 |
| TTTTTTAGGA | 1.01 ± 0.019 |
| CTGTCTGTGC | 1.09 ± 0.044 |
| ATGGAATGGG | 0.959 ± 0.01 |
| TACGATTGGA | 1.034 ± 0.0011 |
| AGCTAATTCG | 1.03 ± 0.045 |
| TGCCACAGCA | 1.02 ± 0.025 |
| GGACTTAGAT | 1.02 ± 0.039 |
| TCGGGCTGGT | 0.977 ± 0.011 |
| GAATGATGGC | 0.939 ± 0.065 |
| TAGGAGTTGT | 0.995 ± 0.016 |
| TAAAAGGGAA | 1.01 ± 0.024 |
| AGAGTTCCTG | 1.01 ± 0.028 |
| CCATTCTTGA | 0.996 ± 0.037 |
| TATTAAGAAT | 0.987 ± 0.0043 |
| ACTTCGTTCT | 1.03 ± 0.034 |
| GGAGGGCAGG | 0.9882 ± 0.0096 |
| GGGTTATTTG | 1.01 ± 0.045 |
| GGGGGAAAGA | 0.989 ± 0.047 |
| TGATGAGGAT | 1.007 ± 0.0083 |

| Sequence | switch fluorescence ratio |
| --- | --- |
| TCTTTGAAGT | 1 ± 0.019 |
| CATGTCAAGC | 1.05 ± 0.024 |
| TTTATGTTGG | 0.979 ± 0.036 |
| CAGTGGCGTA | 1.01 ± 0.011 |
| TTCCAGTAAT | 1.01 ± 0.024 |
| ATACGGCATG | 1.08 ± 0.011 |
| GTGTAAATTT | 0.991 ± 0.04 |
| GATTTGGGT | 0.997 ± 0.051 |
| TAGGTCGTTT | 0.982 ± 0.01 |
| TCTTGTTATT | 0.9985 ± 0.0054 |
| CGCCGGGTCC | 1.05 ± 0.02 |
| GTATGACAGT | 1.02 ± 0.032 |
| AAAGGGCGAT | 0.976 ± 0.011 |
| TCGAGATAGA | 1.1 ± 0.11 |
| GAGTCATGAG | 1.06 ± 0.049 |
| TGACGAAGCG | 1.05 ± 0.035 |
| AAGGGTGGGA | 1.01 ± 0.039 |
| GGAATGCTAT | 0.996 ± 0.013 |
| CGGGGGAGGT | 0.989 ± 0.017 |
| ATTTCTCAGG | 1.07 ± 0.017 |
| ATGGTGGGCT | 0.9811 ± 0.0032 |
| CATTTTCGGC | 1.01 ± 0.039 |
| GTGTAAGGGG | 0.9943 ± 0.0094 |
| GTGTTTATGG | 0.984 ± 0.011 |
| GCGGTGGGGT | 1.01 ± 0.018 |

Source: the supplement of paper PMC10126150
